Experimental data reported in paper PMC7666225.

Experiments:
thrombin [1] = target: thrombin
thrombin [2] = target: thrombin; remark: listed apart in the source
thrombin [3] = target: thrombin; remark: listed apart in the source

Substance | thrombin time test, clotting time with 10 µl SN2 fraction (thrombin [1]) | thrombin time test at equimolar 3.1 nmol/l, elongation of TT against rHV1 (fold against rHV1) (thrombin [2]) | thrombin time test at 1, 4.9 and 9.8 nmol/l, potency against Mel-HV1 (fold against Mel-HV1) (thrombin [3]) | thrombin time test at equimolar 3.1 nmol/l, effect against rHV1 (fold against rHV1) (thrombin [2])
hirudin variant 1 with its endogenous wild-type signal peptide (WT-HV1), cell-free synthesized in CHO cell lysate (from UniProt P01050 1-65) (natural protein) | 94 s | 9 | – | –
hirudin variant 1 with its endogenous wild-type signal peptide (WT-HV1), cell-free synthesized in K562 cell lysate (from UniProt P01050 1-65) (natural protein) | 242 s | – | > 10 | 100
hirudin variant 1 with its endogenous wild-type signal peptide (WT-HV1), cell-free synthesized in Sf21 cell lysate (from UniProt P01050 1-65) (natural protein) | 50 s | > 2 | – | –
